Experimental data: the supplement of paper PMC11246515
± gives the standard deviation of the averaged measurements.

Assay: total protein half-life in vivo (active degradation + dilution); higher = more stable protein
[1] = E. coli NCM3722 delta-clpP delta-lon delta-hslV, growth: N-lim chemostat, doubling time 6 h
[2] = E. coli NCM3722 delta-clpP, growth: N-lim chemostat, doubling time 6 h
[3] = E. coli NCM3722 delta-hslV, growth: N-lim chemostat, doubling time 6 h
[4] = E. coli NCM3722 delta-lon, growth: N-lim chemostat, doubling time 6 h
[5] = E. coli NCM3722 delta-smpB, growth: N-lim chemostat, doubling time 6 h
[6] = wild type E. coli NCM3722, growth: C-lim chemostat, doubling time 3 h
[7] = wild type E. coli NCM3722, growth: C-lim chemostat, doubling time 6 h
[8] = wild type E. coli NCM3722, growth: C-lim chemostat, doubling time 12 h
[9] = wild type E. coli NCM3722, growth: N-lim chemostat, doubling time 6 h
[10] = wild type E. coli NCM3722, growth: N-lim chemostat, doubling time 12 h
[11] = wild type E. coli NCM3722, growth: P-lim chemostat, doubling time 6 h
[12] = wild type E. coli NCM3722, growth: P-lim chemostat, doubling time 12 h

Sequence	total protein half-life in vivo [1] [h]	total protein half-life in vivo [2] [h]	total protein half-life in vivo [3] [h]	total protein half-life in vivo [4] [h]	total protein half-life in vivo [5] [h]	total protein half-life in vivo [6] [h]	total protein half-life in vivo [7] [h]	total protein half-life in vivo [8] [h]	total protein half-life in vivo [9] [h]	total protein half-life in vivo [10] [h]	total protein half-life in vivo [11] [h]	total protein half-life in vivo [12] [h]
MAKERALTLEALRVMDAIDRRGSFAAAADELGRVPSALSYTMQKLEEELDVVLFDRSGHRTKFTNVGRMLLERGRVLLEAADKLTTDAEALARGWETHLTIVTEALVPTPAFFPLIDKLAAKANTQLAIITEVLAGAWERLEQGRADIVIAPDMHFRSSSEINSRKLYTLMNVYVAAPDHPIHQEPEPLSEVTRVKYRGIAVADTARERPVLTVQLLDKQPRLTVSTIEDKRQALLAGLGVATMPYPMVEKDIAEGRLRVVSPESTSEIDIIMAWRRDSMGEAKSWCLREIPKLFNGK	5.43 ± 0.44	5.71 ± 0.84	5.26 ± 0.14	5.85 ± 0.25	5.34 ± 0.25	3.01 ± 0.2	5.658 ± 0.043	11.2 ± 0.74	5.54 ± 0.4	10.9 ± 0.25	6.09 ± 0.32	11.5 ± 0.97
MAKIKGQVKWFNESKGFGFITPADGSKDVFVHFSAIQGNGFKTLAEGQNVEFEIQDGQKGPAAVNVTAI [P0A9Y6]	4.07 ± 0.35	3.26 ± 0.19	2.88 ± 0.095	3.98 ± 0.54	2.65 ± 0.03	2.24 ± 0.71	3.23 ± 0.29	5.61 ± 1.2	2.83 ± 0.21	3.96 ± 0.13	2.94 ± 0.28	5 ± 1.2
MAKNIPFKLILEKAKDYQADMTRFLRDMVAIPSESCDEKRVVHRIKEEMEKVGFDKVEIDPMGNVLGYIGHGPRLVAMDAHIDTVGIGNIKNWDFDPYEGMETDELIGGRGTSDQEGGMASMVYAGKIIKDLGLEDEYTLLVTGTVQEEDCDGLCWQYIIEQSGIRPEFVVSTEPTDCQVYRGQRGRMEIRIDVQGVSCHGSAPERGDNAIFKMGPILGELQELSQRLGYDEFLGKGTLTVSEIFFTSPSRCAVADSCAVSIDRRLTWGETWEGALDEIRALPAVQKANAVVSMYNYDRPSWTGLVYPTECYFPTWKVEEDHFTVKALVNAYEGLFGKAPVVDKWTFSTNGVSIMGRHGIPVIGFGPGKEPEAHAPNEKTWKSHLVTCAAMYAAIPLSWLATE	–	–	3.34 ± 0.23	> 8	3.6	2.93 ± 0.037	5.23 ± 1.1	8.78 ± 0.98	3.7 ± 0.69	6.26 ± 0.46	5.23	9.14 ± 1.7
MAKNRSRRLRKKMHIDEFQELGFSVAWRFPEGTSEEQIDKTVDDFINEVIEPNKLAFDGSGYLAWEGLICMQEIGKCTEEHQAIVRKWLEERKLDEVRTSELFDVWWD	5.96 ± 0.18	6.44 ± 1.1	6.42 ± 0.59	6.34 ± 0.93	5.56 ± 0.31	3.43 ± 0.076	5.41 ± 0.22	9.8 ± 0.27	5.26	12.6 ± 0.72	5.22 ± 0.22	11.7 ± 0.92
MAKNYAALARSVIAALGGVDNISAVTHCMTRLRFVIKDDALIDSPTLKTIPGVLGVVRSDNQCQVIIGNTVSQAFQEVVSLLPGDMQPAQPVGKPKLTLRRIGAGILDALIGTMSPLIPAIIGGSMVKLLAMILEMSGVLTKGSPTLTILNVIGDGAFFFLPLMVAASAAIKFKTNMSLAIAIAGVLVHPSFIELMAKAAQGEHVEFALIPVTAVKYTYTVIPALVMTWCLSYIERWVDSITPAVTKNFLKPMLIVLIAAPLAILLIGPIGIWIGSAISALVYTIHGYLGWLSVAIMGALWPLLVMTGMHRVFTPTIIQTIAETGKEGMVMPSEIGANLSLGGSSLAVAWKTKNPELRQTALAAAASAIMAGISEPALYGVAIRLKRPLIASLISGFICGAVAGMAGLASHSMAAPGLFTSVQFFDPANPMSIVWVFAVMALAVVLSFILTLLLGFEDIPVEEAAAQARKYQSVQPTVAKEVSLN	–	–	–	–	–	1.77 ± 0.078	–	3.55	–	–	–	–
MAKQPGLDFQSAKGGLGELKRRLLFVIGALIVFRIGSFIPIPGIDAAVLAKLLEQQRGTIIEMFNMFSGGALSRASIFALGIMPYISASIIIQLLTVVHPTLAEIKKEGESGRRKISQYTRYGTLVLAIFQSIGIATGLPNMPGMQGLVINPGFAFYFTAVVSLVTGTMFLMWLGEQITERGIGNGISIIIFAGIVAGLPPAIAHTIEQARQGDLHFLVLLLVAVLVFAVTFFVVFVERGQRRIVVNYAKRQQGRRVYAAQSTHLPLKVNMAGVIPAIFASSIILFPATIASWFGGGTGWNWLTTISLYLQPGQPLYVLLYASAIIFFCFFYTALVFNPRETADNLKKSGAFVPGIRPGEQTAKYIDKVMTRLTLVGALYITFICLIPEFMRDAMKVPFYFGGTSLLIVVVVIMDFMAQVQTLMMSSQYESALKKANLKGYGR [P0AGA2]	4.966 ± 0.022	–	5.77 ± 1	4.51 ± 0.048	5.24 ± 1	3.3 ± 0.39	5.04 ± 0.31	9.27 ± 3	4.83 ± 0.52	8.18 ± 0.17	4.94 ± 0.68	8.06 ± 0.49
MAKSVPAIFLDRDGTINVDHGYVHEIDNFEFIDGVIDAMRELKKMGFALVVVTNQSGIARGKFTEAQFETLTEWMDWSLADRDVDLDGIYYCPHHPQGSVEEFRQVCDCRKPHPGMLLSARDYLHIDMAASYMVGDKLEDMQAAVAANVGTKVLVRTGKPITPEAENAADWVLNSLADLPQAIKKQQKPAQ	5.54 ± 0.29	5.269 ± 0.022	4.97 ± 0.51	5.62 ± 0.25	4.95 ± 0.083	2.54 ± 0.091	4.782 ± 0.0071	13.4 ± 3.2	5.05 ± 0.25	8.7 ± 0.32	5.49 ± 0.68	11.4 ± 1.5
MALHDENVVWHSHPVTVQQRELHHGHRGVVLWFTGLSGSGKSTVAGALEEALHKLGVSTYLLDGDNVRHGLCSDLGFSDADRKENIRRVGEVANLMVEAGLVVLTAFISPHRAERQMVRERVGEGRFIEVFVDTPLAICEARDPKGLYKKARAGELRNFTGIDSVYEAPESAEIHLNGEQLVTNLVQQLLDLLRQNDIIRS [P0A6J1]	4.97 ± 0.48	3.79 ± 0.44	2.03 ± 0.21	2.4 ± 0.82	1.72 ± 0.06	1.86 ± 0.13	4.8 ± 3	–	2.41	2.47	2.07	3.52 ± 0.087
MALKATIYKATVNVADLDRNQFLDASLTLARHPSETQERMMLRLLAWLKYADERLQFTRGLCADDEPEAWLRNDHLGIDLWIELGLPDERRIKKACTQAAEVALFTYNSRAAQIWWQQNQSKCVQFANLSVWYLDDEQLAKVSAFADRTMTLQATIQDGVIWLSDDKNNLEVNLTAWQQPS [P0AA97]	5.6431 ± 0.0016	3.9 ± 0.19	4.82 ± 0.38	5.25 ± 0.72	3.354 ± 0.009	–	–	8.84 ± 1.6	4.38	7.28 ± 0.26	4.93 ± 0.28	–
